Like-named read-outs stand apart in the source and are kept apart here.
What was measured:
[1] = test system: untransfected 293 cells; test: adenylyl cyclase assay in untransfected 293 cells; format: cell-based, human; details: agouti 0.7 nM
Experimental: 293 cells (5×10^5) and 293 cells expressing human TSH-R were preloaded with 5 μCi ^3H-adenine for 1.5 h at 37° C. in a 5% CO2 incubator.
Medium was aspirated and 2.5% perchloric acid containing 0.1 mM cAMP was used to stop the incubation. Adenylyl cyclase activity was calculated by determining the percent conversion of ^3H-adenine to ^3H-cAMP as described (Salomon, 1991; Johnson and Salomon, 1991). Correlation of cAMP accumulation measured in this assay with actual adenylyl cyclase activity is made under the assumption that isobutymethylxanthine effectively blocks cAMP degradation. Data represent means and standard deviations from triplicate data points.

[2] = molecular target: T1, human MSH-R (Homo sapiens, UniProt Q01726); test: activation of human MSH-R in 293 cells (adenylyl cyclase); format: cell-based; details: 0.7 nM agouti
T1 construct: expressed in transfected cells; host or cells: human embryonic kidney 293 cells (printed '292')
T1 sequence (Q01726 whole entry): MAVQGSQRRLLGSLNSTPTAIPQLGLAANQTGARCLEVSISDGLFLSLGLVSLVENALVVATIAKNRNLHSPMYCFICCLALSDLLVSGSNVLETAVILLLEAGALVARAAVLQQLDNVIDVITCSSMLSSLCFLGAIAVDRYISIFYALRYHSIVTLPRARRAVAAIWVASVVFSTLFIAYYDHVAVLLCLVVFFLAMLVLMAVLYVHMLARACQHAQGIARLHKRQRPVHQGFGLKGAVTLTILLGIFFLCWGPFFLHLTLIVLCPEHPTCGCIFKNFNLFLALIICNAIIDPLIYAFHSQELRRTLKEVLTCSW

[3] = molecular target: T2, human MC4-R (Homo sapiens, UniProt P32245); test: α-MSH activation of human MC4-R in transfected 293 cells (adenylyl cyclase); format: cell-based
T2 construct: expressed in transfected cells; host or cells: 293 cells
T2 sequence (P32245 whole entry): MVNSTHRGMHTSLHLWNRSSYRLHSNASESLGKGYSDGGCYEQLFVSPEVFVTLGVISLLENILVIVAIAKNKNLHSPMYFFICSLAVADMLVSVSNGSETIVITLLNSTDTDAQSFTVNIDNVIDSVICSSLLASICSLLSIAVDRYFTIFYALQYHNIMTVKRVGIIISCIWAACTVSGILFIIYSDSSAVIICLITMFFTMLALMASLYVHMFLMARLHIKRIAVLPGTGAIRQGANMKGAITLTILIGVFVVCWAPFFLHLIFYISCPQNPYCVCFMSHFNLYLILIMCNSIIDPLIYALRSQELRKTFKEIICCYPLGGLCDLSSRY

[4] = molecular target: T3, mouse MC5-R (Mus musculus, UniProt P41149); test: α-MSH activation of mouse MC5-R in transfected 293 cells (adenylyl cyclase); format: cell-based
T3 construct: expressed in transfected cells; host or cells: 293 cells
T3 sequence (P41149 whole entry): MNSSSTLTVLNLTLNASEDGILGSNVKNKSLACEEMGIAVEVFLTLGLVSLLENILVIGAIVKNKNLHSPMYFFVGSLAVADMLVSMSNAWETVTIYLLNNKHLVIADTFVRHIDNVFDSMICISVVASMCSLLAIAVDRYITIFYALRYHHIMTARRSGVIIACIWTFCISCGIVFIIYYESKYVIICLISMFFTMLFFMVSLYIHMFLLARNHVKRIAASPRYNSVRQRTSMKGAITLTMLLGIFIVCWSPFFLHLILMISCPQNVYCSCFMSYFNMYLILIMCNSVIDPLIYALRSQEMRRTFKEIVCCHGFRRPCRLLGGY

[5] = test system: L6 skeletal myocytes; test: [Ca2+]i in L6 skeletal myocytes (fura 2); format: cell-based; details: for [Ca2+]i Increase over Baseline: 400 s, n = 8
[6] = molecular target: T4, human melanocortin 1 receptor (hMC1R) (Homo sapiens, UniProt Q01726); test: [Ca2+]i in HEK-293 cells transfected with hMC1R; format: cell-based; details: FIG. 48, plateau at 400 s
T4 construct: The coding region of the human melanocortin 1, 3, and 5 receptor (hMC1R, hMC3R, and hMC5R) genes was amplified; expressed in transfected cells; host or cells: HEK-293 cells, cotransfected with pMT4 construct and pRSV-Neo, geneticin-selected clones
T4 sequence (Q01726 whole entry): as the sequence (Q01726 whole entry) above
Experimental: The coding region of the human melanocortin 1, 3, and 5 receptor (hMC1R, hMC3R, and hMC5R) genes was amplified by polymerase chain reaction and subcloned into the vector pMT4, and the sequence was verified. HEK-293 cells, which appear to lack endogenous melanocortin receptors (Lu et al., 1994), were cotransfected with pMT4 and pRSV-Neo by either calcium phosphate coprecipitation method or the use of Transfectam reagent (Promega). Clones were selected using 600 μg geneticin/ml. culture medium.
[Ca^2+]i was measured in L6, A7r5, and HEK-293 cells (Zemel et al., 1995) as previously described and in 3T3-L1 cells as described by Klip and Ramlal (1987). Monolayers of nonfused L6 cells and confluent A7r5 cells after 14-16 h of starvation in a serum-free culture medium were rinsed with Hanks' balanced salt solution (HBSS), detached by incubation in 2 ml trypsin (0.05%) for 2-3 min at 37° C., and released by pipetting without trypsinization. Cells were harvested by centrifugation at 50 g and resuspended in 1 ml HBSS at a density of ˜10^6 cells/ml. For 3T3-L1 cells, monolayers of differentiated adipocytes were rinsed with serum-free DMEM and exposed to 0.05% trypsin for 3 min. The solution was decanted, and the cells were incubated for 3 min in culture medium. Cells were detached by pipetting and collected by centrifugation at 50 g. Cells were then incubated in culture medium to recover for 1 h followed by incubation in serum-free DMEM for 4 h at 37° C. in an atmosphere of 5% CO2, collected by centrifugation, and resuspended in HBSS at a density of ˜10^6 cells/ml. Cell suspensions were chilled on ice for 5 min and loaded with […] (final concn) fura 2 acetoxymethyl ester (AM; Sigma) in the dark for 20 min at 37° C. For 3T3-L1 adipocytes, the chilling step was skipped. […] [Ca^2+]i levels were then measured fluorometrically in suspensions using dual excitation (340 and 380 nm)-single emission (510 nm) fluorometry as previously described (Zemel et al., 1995). [Ca^2+]i was then calculated by the computer in the fluorometer with the equation of Grynkiewicz et al. (1985). […]

B1: agouti: recombinant mouse agouti protein (131 amino acids, SEQ ID NO:2) produced with the baculovirus expression system in T. ni cells (protein, listed as Mus musculus)
chain: MDVTRLLLATLVSFLCFFTVHSHLALEETLGDDRSLRSNSSMNSLDFSSVSIVALNKKSKKISRKEAEKRKRSSKKKASMKKVARPPPPSPCVATRDSCKPPAPACCDPCASCQCRFFGSACTCRVLNPNC
[1]
  effect on basal adenylyl cyclase levels: no effect
[2]
  inhibition of MSH-R activation: No inhibition
[3]
  antagonism of α-MSH activation: potent antagonist
[4]; 100 nM agouti
  antagonism of receptor activation: unaffected
[4]; agouti 0.7 nM
  antagonism of receptor activation: did not antagonize
[5]; 5 nM Agouti
  [Ca2+]i Increase over Baseline: 49 ± 8 nM
[5]; 25 nM Agouti
  [Ca2+]i Increase over Baseline: 32 ± 1 nM
[5]; 50 nM agouti, no channel blocker
  [Ca2+]i response: 49 ± 8 nM
[5]; nonlinear least-squares, y=(Vmax·x)/(K+x)
  Vmax of [Ca2+]i dose-response fit: 123±15.63
[5]; nonlinear least-squares, y=(Vmax·x)/(K+x), read-out: K of [Ca2+]i dose-response fit
  EC50: 62.1 ± 19.4 nM
[5]; response plateau at 400 s, read-out: apparent EC50 of [Ca2+]i response
  EC50: 62 ± 19 nM
[6]
  Vmax of [Ca2+]i dose-response fit: 108.2±1.337
[6]; read-out: K of [Ca2+]i dose-response fit
  EC50: 18.4 ± 0.706 nM
